Results on one molecule are retold here after paper PMC7542365 (mBio, 2020).

In the assay the target is T1, A/Brevig Mission/1/1918 H1N1 NA, soluble tetramer with His tag attached (influenza A virus A/Brevig …).
T1 chain: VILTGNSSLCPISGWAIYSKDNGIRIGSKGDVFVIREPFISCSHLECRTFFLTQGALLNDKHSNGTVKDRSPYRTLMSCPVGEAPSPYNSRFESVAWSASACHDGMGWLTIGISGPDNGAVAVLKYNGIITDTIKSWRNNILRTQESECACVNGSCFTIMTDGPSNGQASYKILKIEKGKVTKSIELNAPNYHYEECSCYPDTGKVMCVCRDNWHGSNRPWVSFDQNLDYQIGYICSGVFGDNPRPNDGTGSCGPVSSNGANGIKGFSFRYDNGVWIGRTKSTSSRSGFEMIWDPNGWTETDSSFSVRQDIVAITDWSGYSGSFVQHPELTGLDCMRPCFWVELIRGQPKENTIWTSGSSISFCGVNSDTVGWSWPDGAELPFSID
In words: SPR. In general terms: Surface plasmon resonance follows binding to a sensor surface in real time, without labels.

B1: Z2B3-D102R Fab (Fab, V domains shown)
VH: EVQLVQSGAEVKKPGSSVKVSCKASGGPFSSYGFSWVRQAPGQGLEWMGGIIPVYGTTNYAQKFQGRVTITADESTSTAYMELSSLKSEDTAVYYCARDLQRTPMVDRIIGSYYYYNGLDVWGQGTTVTVSS
VL: QSVLTQPASVSGSPGQSITISCTGASSDVGDYNYVSWYQQHPGKAPKLMIYDVSNRPSGVSNRFSGSKSGDTASLTISGLQAEDEADYYCSSYTRSSSVVFGGGTKLTVL
By Kd is commonly meant the concentration at which binding is half-saturated. Higher therefore signals lower affinity. B1 returned a Kd of 1670 nM. In other words, the single-digit micromolar range.
